Source: the supplement of paper PMC9732359
± gives the uncertainty stated by the source.

Test: protein stability index of a GFP-peptide fusion (yeast GPS) (PSI 1-4); higher = more stable; sorted into four equal gates, so the index is relative within each strain
Procedure, shortened: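 Mid-log yeast cultures in leucine-free medium, carrying a pooled plasmid library, were sorted into four equal gates by their GFP/Cherry fluorescence ratio. Each plasmid expressed Cherry along with GFP fused upstream of a tiled 17-residue yeast protein peptide. Plasmids recovered from each gate were PCR-amplified and Illumina-sequenced, with reads assigned to strains by barcodes. The protein stability index was obtained by summing each gate's read frequency weighted by its gate number.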

Sequence | protein stability index (doa10∆) | protein stability index (pdr5∆) | protein stability index (san1∆) | protein stability index (ubr1∆)
FKSALANLEDIIFEIEK [RRP6] | 3.21 ± 0.13 | 3.13 ± 0.096 | 3.2 ± 0.071 | 2.83 ± 0.12
FKVARELKTEAAVLSNL [ITC1] | 2.83 ± 0.19 | 2.66 ± 0.11 | 2.9 ± 0.089 | 2.86 ± 0.061
FLANHKDRLYCGKCHSV [RPS31] | 2.38 ± 0.17 | 2.61 ± 0.13 | 2.02 ± 0.16 | 2.69 ± 0.082
FLDGIYVSHKGFIVEDM [RPL9B] | 2.24 ± 0.13 | 2.86 ± 0.074 | 2.74 ± 0.087 | 2.66 ± 0.13
FLIHSGQPVNDFIDTAT [RPS3] | 2.71 ± 0.053 | 3 ± 0.056 | 3.09 ± 0.05 | 3.04 ± 0.073
FLIKASVREINLYMLVT [SSN8] | 1.55 ± 0.063 | 1.43 ± 0.047 | 1.89 ± 0.091 | 1.44 ± 0.052
FLKDADVECIKAKSHFT [YJL039C/NUP192] | 3.11 ± 0.13 | 3.2 ± 0.14 | 2.91 ± 0.089 | 2.98 ± 0.059
FLLHNSEIIDTNTSKQF [SRB8] | 2.83 ± 0.086 | 3.06 ± 0.069 | 2.85 ± 0.055 | 2.81 ± 0.044
FLLNQNKQLSQSVEEKV [YIL149C/MLP2] | 2.16 ± 0.084 | 1.84 ± 0.1 | 1.77 ± 0.14 | 2.09 ± 0.068
FLNNGEVDSASDFISKL [RPN3] | 2.57 ± 0.29 | 3.33 ± 0.21 | 2.8 ± 0.27 | 3.29 ± 0.13
FLQKFEIAFHLTLIFYD [YML103C/NUP188] | 1.49 ± 0.083 | 1.46 ± 0.044 | 1.41 ± 0.12 | 1.35 ± 0.052
FLRKATAFNKTRGPFHF [RPL16B] | 3 ± 0.042 | 3.12 ± 0.045 | 2.78 ± 0.043 | 3.08 ± 0.033
FLRQKICLMTLIETVFV [RPN9] | 1.37 ± 0.12 | 1.32 ± 0.12 | 1.06 ± 0.14 | 1.94 ± 0.28
FLRTMKLTSEETVFNYR [GRR1] | 3.11 ± 0.066 | 2.81 ± 0.067 | 3 ± 0.06 | 3.02 ± 0.052
FMSNDGPTLEKYISAEL [SNU114] | 2.18 ± 0.069 | 2.83 ± 0.078 | 3.03 ± 0.054 | 3.24 ± 0.082
FMVRLDSEKHIDFAPTS [RPS9A] | 2.91 ± 0.071 | 2.87 ± 0.047 | 2.72 ± 0.05 | 2.82 ± 0.047
FNAIDLARHLPAELDLR [RPC82] | 2.46 ± 0.09 | 2.56 ± 0.076 | 2.29 ± 0.083 | 2.99 ± 0.11
FNEDQLFSLLELGEQKC [RRP46] | 2.37 ± 0.071 | 2.6 ± 0.089 | 2.61 ± 0.071 | 2.36 ± 0.062
FNGADIRNCATEAGFFA [RPT4] | 3.32 ± 0.065 | 3.38 ± 0.079 | 3.3 ± 0.057 | 3.22 ± 0.048
FNGLKPLIQNSMRTIMK [PRP8] | 2.56 ± 0.091 | 2.51 ± 0.12 | 2.15 ± 0.17 | 2.56 ± 0.15
FNIIREFRSAAGQLALD [YDL116W/NUP84] | 2.92 ± 0.12 | 3.16 ± 0.12 | 2.94 ± 0.076 | 3.25 ± 0.087
FNKTTNIDINNEDENIQ [YJL041W/NSP1] | 3.19 ± 0.074 | 3.31 ± 0.082 | 3.09 ± 0.056 | 3.2 ± 0.059

Sequence | protein stability index (doa10∆) | protein stability index (pdr5∆) | protein stability index (san1∆) | protein stability index (ubr1∆)
FNNEAPPQTRKFQPPPG [SMB1] | 2.86 ± 0.1 | 3.11 ± 0.1 | 3.01 ± 0.075 | 3.13 ± 0.085
FNPYGDNGGTILGIAGE [PRE7] | 3.37 ± 0.1 | 3.24 ± 0.11 | 3.24 ± 0.16 | 3.28 ± 0.064
FNRTKGKMVRAQDVALA [PRP8] | 1.86 ± 0.21 | 1.76 ± 0.13 | – | 1.06 ± 0.096
FNSVQKKSRSNLSQEND [YAR002W/NUP60] | 2.81 ± 0.09 | 2.85 ± 0.071 | 2.49 ± 0.1 | 3.12 ± 0.12
FNTQQGIKKHSLWRRTV [YDL116W/NUP84] | 2.6 ± 0.049 | 2.76 ± 0.043 | 2.77 ± 0.048 | 2.49 ± 0.031
FNVEYFAKEKLTKKEKK [RPL6A] | 2.23 ± 0.084 | 1.68 ± 0.066 | 1.44 ± 0.12 | 1.9 ± 0.073
FNYSGKDMLYSGITGEC [RET1] | 2.48 ± 0.075 | 2.46 ± 0.075 | 2.19 ± 0.12 | 2.61 ± 0.06
FPEVFQVNIRFLLHNSE [SRB8] | 1.64 ± 0.1 | 1.73 ± 0.13 | – | 2.62 ± 0.17
FQDVYDLTGSEPIKEII [FAS1] | 2.78 ± 0.25 | 3.02 ± 0.081 | – | 3.22 ± 0.1
FQELDSKKQRNNGSKDH [RPN9] | 3.09 ± 0.17 | 2.64 ± 0.19 | 2.67 ± 0.15 | 2.37 ± 0.16
FQIIDTLLPGLQDEVMN [RPS2] | 2.32 ± 0.082 | 1.72 ± 0.059 | 2.22 ± 0.091 | 2.09 ± 0.05
FQIVIEPLAIALSMGKS [ARP7] | 1.42 ± 0.054 | 1.71 ± 0.059 | 1.52 ± 0.092 | 1.5 ± 0.07
FQMNCYAKEDAFSYPRM [RPN2] | 2.53 ± 0.12 | 2.52 ± 0.078 | 2.48 ± 0.077 | 2.61 ± 0.047
FQNSYKPALKVSKEGLY [YMR129W/POM152] | 2.42 ± 0.22 | 3.12 ± 0.11 | 3.02 ± 0.082 | 3.07 ± 0.1
FQQIQYENKQLYFPDDY [POP1] | 2.92 ± 0.11 | 2.5 ± 0.083 | 2.78 ± 0.12 | 2.73 ± 0.086
FQSQQRRKDTSMVLFFV [RPB9] | 1.55 ± 0.083 | 1.57 ± 0.14 | 1.62 ± 0.16 | 1.46 ± 0.044
FRAVGEGNAQLVAIFGG [FAS1] | 1.17 ± 0.043 | 1.55 ± 0.063 | 1.51 ± 0.1 | 1.36 ± 0.055
FRETTHSKRELDSGDDQ [BRR2] | 3.31 ± 0.12 | 3.02 ± 0.12 | 2.51 ± 0.088 | 2.78 ± 0.16
FRSYMDQEKKYGMSITE [RPB2] | 1.69 ± 0.054 | 2.43 ± 0.063 | 2.89 ± 0.065 | 2.75 ± 0.032
FSFGKPFFSSNTSSLQS [YIL149C/MLP2] | 2.95 ± 0.054 | 3.07 ± 0.052 | 2.86 ± 0.046 | 2.926 ± 0.028
FSFGQNNNNTNTQPSAS [YGR119C/NUP57] | 2.87 ± 0.071 | 2.61 ± 0.069 | 2.82 ± 0.06 | 2.78 ± 0.043
